Values belong to the compound of their own block, whether it stands above or below them.
Tests used:
BAM1 = molecular target: T1, BAM1 (Arabidopsis thaliana, UniProt O49545); assay: competition binding of fluorescent Alexa488-CLE9 on bead-immobilized BAM1 (confocal imaging); confirmed by competitive photoaffinity labeling with […]ASA-CLE9 and […]ASA-[Ara3]CLV3
T1 construct: BAM1-HT: Met1 to Ile700 region (signal peptide, 22 LRRs, transmembrane domain), cytoplasmic kinase domain replaced with HaloTag; expressed in tobacco BY-2 cells, immobilized on HaloLink Sepharose beads
T1 sequence (O49545 1-700): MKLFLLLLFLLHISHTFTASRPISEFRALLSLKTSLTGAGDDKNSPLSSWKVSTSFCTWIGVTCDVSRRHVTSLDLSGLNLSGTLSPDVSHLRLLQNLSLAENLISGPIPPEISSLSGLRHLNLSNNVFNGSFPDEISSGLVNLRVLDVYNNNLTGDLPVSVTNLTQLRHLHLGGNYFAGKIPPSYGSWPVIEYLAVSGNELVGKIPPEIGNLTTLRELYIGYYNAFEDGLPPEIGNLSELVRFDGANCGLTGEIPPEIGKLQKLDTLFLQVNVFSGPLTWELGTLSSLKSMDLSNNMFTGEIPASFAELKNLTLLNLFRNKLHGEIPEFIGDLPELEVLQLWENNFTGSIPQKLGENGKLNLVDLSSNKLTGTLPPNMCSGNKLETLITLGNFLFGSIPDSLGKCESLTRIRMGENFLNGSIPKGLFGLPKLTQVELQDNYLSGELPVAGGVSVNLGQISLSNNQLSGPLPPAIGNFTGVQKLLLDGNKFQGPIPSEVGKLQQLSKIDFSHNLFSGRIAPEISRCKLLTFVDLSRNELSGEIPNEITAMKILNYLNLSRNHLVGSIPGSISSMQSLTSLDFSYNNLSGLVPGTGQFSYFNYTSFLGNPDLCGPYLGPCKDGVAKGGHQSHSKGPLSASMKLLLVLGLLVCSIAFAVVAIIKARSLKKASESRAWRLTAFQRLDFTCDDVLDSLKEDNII

[1] = molecular target: BAM1 (Arabidopsis thaliana) (UniProt O49545); details: cited from earlier work
[2] = molecular target: BAM2 (Arabidopsis thaliana) (UniProt Q9M2Z1); details: cited from earlier work
Sequence of BAM2 (Arabidopsis thaliana) (Q9M2Z1 23-636): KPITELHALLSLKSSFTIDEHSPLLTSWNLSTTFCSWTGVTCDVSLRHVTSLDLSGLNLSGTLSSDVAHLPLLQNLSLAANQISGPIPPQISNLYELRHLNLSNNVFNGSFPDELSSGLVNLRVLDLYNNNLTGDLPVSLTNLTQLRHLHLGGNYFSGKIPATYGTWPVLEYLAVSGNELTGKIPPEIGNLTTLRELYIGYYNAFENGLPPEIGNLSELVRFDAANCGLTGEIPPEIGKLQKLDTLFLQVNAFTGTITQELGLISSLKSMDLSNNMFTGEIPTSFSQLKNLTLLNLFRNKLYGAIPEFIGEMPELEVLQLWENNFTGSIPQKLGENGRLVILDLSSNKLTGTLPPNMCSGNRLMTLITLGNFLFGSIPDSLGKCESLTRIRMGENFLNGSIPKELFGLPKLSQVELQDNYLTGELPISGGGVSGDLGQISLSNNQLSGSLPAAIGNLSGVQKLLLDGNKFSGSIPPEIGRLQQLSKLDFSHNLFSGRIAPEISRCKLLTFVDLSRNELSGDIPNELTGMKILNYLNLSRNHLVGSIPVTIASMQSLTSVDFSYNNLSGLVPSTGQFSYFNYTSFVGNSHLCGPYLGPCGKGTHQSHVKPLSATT

[3] = molecular target: CLV1 (Arabidopsis thaliana) (UniProt Q9SYQ8); details: cited from earlier work
Sequence of CLV1 (Arabidopsis thaliana) (Q9SYQ8 25-638): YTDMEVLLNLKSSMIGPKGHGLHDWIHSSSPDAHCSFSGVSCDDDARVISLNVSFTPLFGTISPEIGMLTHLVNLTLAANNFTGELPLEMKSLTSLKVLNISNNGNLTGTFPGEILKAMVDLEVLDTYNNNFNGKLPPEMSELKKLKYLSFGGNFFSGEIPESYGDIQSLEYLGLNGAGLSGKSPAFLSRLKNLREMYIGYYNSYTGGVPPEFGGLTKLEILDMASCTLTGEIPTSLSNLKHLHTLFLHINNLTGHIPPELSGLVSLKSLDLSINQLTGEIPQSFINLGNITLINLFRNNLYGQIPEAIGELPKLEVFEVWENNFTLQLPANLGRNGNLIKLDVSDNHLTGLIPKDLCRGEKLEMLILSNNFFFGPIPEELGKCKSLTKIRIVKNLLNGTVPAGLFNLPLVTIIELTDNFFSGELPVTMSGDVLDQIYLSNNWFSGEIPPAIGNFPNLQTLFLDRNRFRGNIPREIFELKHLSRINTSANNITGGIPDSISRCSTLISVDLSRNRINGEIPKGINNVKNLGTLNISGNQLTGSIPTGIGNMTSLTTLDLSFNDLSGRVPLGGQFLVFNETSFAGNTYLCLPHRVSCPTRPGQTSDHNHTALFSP

[4] = molecular target: BAM1-HaloTag (recombinant BAM1 in which the cytoplasmic kinase domain was replaced with HaloTag) (Arabidopsis) (UniProt O49545); assay: cross-linking; photoaffinity labeling as a3, in the presence of 100 μM NPD12704
[5] = molecular target: BAM1-HaloTag (recombinant BAM1 in which the cytoplasmic kinase domain was replaced with HaloTag) (Arabidopsis) (UniProt O49545); assay: cross-linking; photoaffinity labeling as a3, in the presence of 10 μM NPD12704

Compound: CLE9 (from UniProt Q9FZE4)
Kd [1]: 1.8 nM
Kd [2]: 11.9 nM

Compound: [Ara3]CLV3 (from UniProt Q9XF04)
Kd [3]: 1 nM

Continued, values first:

IC50 (BAM1): 26000 nM
Compound: CNC(=S)Nc1cc(OC)c(OC)cc1Cc1nccc2cc(OC)c(OC)cc12 [NPD12704]

cross-linked band, percent of the control, with 100 μM NPD12704 (% of the control) [4]: 33
cross-linked band, percent of the control, with 10 μM NPD12704 (% of the control) [5]: 62
Compound: [^125I]ASA-CLE9 (peptide)

cross-linked band, percent of the control, with 10 μM NPD12704 (% of the control) [5]: 46
Compound: [^125I]ASA-[Ara3]CLV3 glycopeptide

— paper PMC6377654, “Screening and identification of a non-peptide antagonist for the peptide hormone receptor in Arabidopsis” (Communications Biology, 2019)
